From the nanobody polyreactivity screen of Harvey et al. (2022)

assay: yeast display, Sf9 membrane polyspecificity reagent, FACS + sequencing; frameworks hold sequencing errors
Procedure, shortened: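 Galactose induction of a Saccharomyces cerevisiae BJ5465 synthetic nanobody display library ran 36–48 hours. The cells were then stained for 1 hour at 4 °C with 10% biotinylated, detergent-solubilized Sf9 membrane reagent, pulled down on streptavidin microbeads and FACS-sorted into low and high (top ~1%) gates on expression and reagent-binding fluorescence. Labels for polyreactivity follow the gate of origin.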

Sequence	polyreactivity (PSR sort gate)
QVQLVESGGGLVQAGGSLRLSCAASGRTFDPYAMGWYRQAPGKERELVAAITSSGGSTYYADSVKGRFTISRDNAKNTVYLQMNSLKPEDTAVYYCAAEQRDFIWWFYYWGQGTQVTVSS	high polyreactivity
QVQLVESGGGLVQAGGSLRLSCAASGRTFDRNAMGWYRQAPGKEREVVAAISSSSGSTYYADSVKGRFTISRDNAKNTVYLQMNSLKPEDTAVYYCATVRWYYSRPRPTTAYGYWGQGTQGTVSS	high polyreactivity
QVQLVESGGGLVQAGGSLRLSCAASGRTFDRYDMGWYRQAPGKERELVATISSSGGSTYYADSVKGRFTISRDNAKNTVYLQMNSLKPEDTAVYYCAADPSGDYWGQGTQVTVSS	low polyreactivity
QVQLVESGGGLVQAGGSLRLSCAASGRTFDSNTMGWYRQAPGKERELVAAITGSGGRTYYADSVKGRFTISRDNAKNTVYLQMNSLKPEDTAVYYCNADSLYRYGSQYYYWGQGTQVTVSS	high polyreactivity
QVQLVESGGGLVQAGGSLRLSCAASGRTFDSYAMGWYRQAPGTETELVAGITRSGDSSYADSVKGRFTISRDNAKNTVYLQMTSLKPEDTAVYYCNKEGTVGGTRGYWGQGTQVTVSS	low polyreactivity
QVQLVESGGGLVQAGGSLRLSCAASGRTFDSYTMGWYRQAPGKERELVAAINYSVASTNYADSLKGRFTISRDNAKITVYLQMNSLKTEDTAVYYCNRASAGWGPGTQVTVSS	low polyreactivity
QVQLVESGGGLVQAGGSLRLSCAASGRTFDVYAMGWYRQAPGKERELVAAISKRGGSTYYADSVKGRFTISRDNAKNTVYLQMNSLKPEDTAVYYCNAYQTGWKGYDYWGQGTQVTVSS	high polyreactivity
QVQLVESGGGLVQAGGSLRLSCAASGRTFDYNAMGWYRQAPGKERELVAAISYSTGTTYYADSVKGRFTISRDNAKNTVYLQMNSLKPEDTAVYYCAAEIFYSEYGYWGQGTQVTVSS	low polyreactivity
QVQLVESGGGLVQAGGSLRLSCAASGRTFDYYTMGWYRQAPGKERELVAAISRSSGRTYYADSVKGRFTISRDNAKNTVYLQMNSLKPEDTAVYYCAARYYLSVRYGYWGQGTQVTVSS	high polyreactivity
QVQLVESGGGLVQAGGSLRLSCAASGRTFEHYAMGWYRQAPGKEREFVAVIDSSDGSTYYADSVKGRFTISRDNAKNTVYLQMNSLKPEDTAVYYCLGGYYYLQYDYWGQGTQVTVSS	low polyreactivity
QVQLVESGGGLVQAGGSLRLSCAASGRTFEHYAMGWYRQAPGKERELVAAITWSGVSTYYADSVKGRFTISRDNAKNTVYVQMNSLKPEDTAVYYCAANWLGYGFDYWGQGTQVTVSS	low polyreactivity
QVQLVESGGGLVQAGGSLRLSCAASGRTFEHYGMGWYRQAPGKEREFVADISRIGGSTYADSVKGRFTISRDNAKNTVYLQKNSLKPEDSAVYYCNKARYQLGSGYNYWGQGTQVTVSS	low polyreactivity
QVQLVESGGGLVQAGGSLRLSCAASGRTFEIYAMGWYRHAPGKERELVAAISSSGGSTYYADSVKGRFTISRDNAKNTVYLQMNSLKPEDTAVYYCAARYRATLTRTRVGYWGQGTQLTVSS	high polyreactivity
QVQLVESGGGLVQAGGSLRLSCAASGRTFEKNAMGWYRQAPGKERELVASITSVGSTDYADSVKGRFTISRDNAKNTVYLQMNSLKPEDTAVYYCAKTLGSQNYDFDYWGQGTQVTVSS	low polyreactivity
QVQLVESGGGLVQAGGSLRLSCAASGRTFEVYAMGLYRQAPGKERELVATITYSGGITYYADSVKGRFTISRDNAKNTVYLQMNSLKPEDTAVYYPIGVRGDYDYWGQGTQVTVSS	low polyreactivity
QVQLVESGGGLVQAGGSLRLSCAASGRTFEWNAMGWYRQAPGKERELVAAITKRGGITYYADSVKGRFTISRDNAKNTVYLQMNSLKPEDTAVYYCAKRIVFYGRYDYWGQGTQVTVSS	high polyreactivity
QVQLVESGGGLVQAGGSLRLSCAASGRTFEYYAMGWYRQAPGKEREFVAAISRSGGSTYYADSVKGRFTISRDNAKNTVYLQMNSLKPEDTAVYYCAASAIRRSQRFYHWGQGTQVTVSS	high polyreactivity
QVQLVESGGGLVQAGGSLRLSCAASGRTFFANAMGWYRQAPGKERELVAAISGSGDRTYYADSVKGRFTISRDNAKNTVYLQMNSLKPEDTAVYYCAAAGWSARGYNYWGQGTQVTVSS	high polyreactivity
QVQLVESGGGLVQAGGSLRLSCAASGRTFFDYAMGWYRQAPGKEWELVAAITASGSSTYYADSVKGRFTISRDNAKNTVYLQMNSLKPDDTAVYYCAAGASANKKITSYDYWGQGTQVTVSS	low polyreactivity
QVQLVESGGGLVQAGGSLRLSCAASGRTFFDYTMGWYRQAPGKERELVAAITGGDGSTYYADSVKGRFTISRDNAKTTVYLQMNSLKPEDTAVYDCAAEYTRTYWYAAMDYWGQGTQVTVSS	low polyreactivity
QVQLVESGGGLVQAGGSLRLSCAASGRTFFGYAMGWYRQAPGKEREFVAAISGSGGSTYYADSVKGRFTISRDNAKNTVYLQMNSLKPEDTAVYYCNGDYWGEYYYWGQGTQVSVSS	low polyreactivity
QVQLVESGGGLVQAGGSLRLSCAASGRTFFGYAMGWYRQAPGKERELVATISGSGASTYYADSVKGRFTISRDNAKNTVYLQMNSLKPEDTAVYYCAVRLYFYQRNYYSWGQGTQVTVSS	high polyreactivity

Sequence	polyreactivity (PSR sort gate)
QVQLVESGGGLVQAGGSLRLSCAASGRTFFGYAMGWYRQAPGTERELVAAINWGGASTYYADSVKGRFTISRDNAKNTVYLQMNSLKPEATAVYYCAADSVPSRPTYGRYDYWGQGTQVTVSS	low polyreactivity
QVQLVESGGGLVQAGGSLRLSCAASGRTFFHYAMGWYRQAPRKERELVAAISSGGGTYADSVKGRFTISRDNAKNTVYLQMNSLKPEDTAVYYCNADTDSAKSPAYYYWGQGTQVTVSS	low polyreactivity
QVQLVESGGGLVQAGGSLRLSCAASGRTFFIYAMGWYRQAPGKERELVAAIRWRGGSTYYADSVKGRFTISRDNAKNTVYLQMNSLKPEDTAVYYCAASNRQARYEDYYWGQGTQVTVSS	high polyreactivity
QVQLVESGGGLVQAGGSLRLSCAASGRTFFKYAMGWYRQAPGKERELVAAITGRGGSTYADSVKGRFTISRDNAKNTVYLQMNCLKPEDTAVYYCAKVFQRGAQYYYYKYDYWGQGTQVTVSS	high polyreactivity
QVQLVESGGGLVQAGGSLRLSCAASGRTFFPNAMGWYRQAPGKERELVAAISSGGSTYYADSVKGRFTISRDNAKNTVYLQMNSLKPEDTAVYYCAVYGFYSKYGYWGQGTQVTVSS	high polyreactivity
QVQLVESGGGLVQAGGSLRLSCAASGRTFFRNAMGWYRQAPAKERELVAGISRSGGSTYYADSVKGRFTISRDNAQNTFSLEMNSLKPEDSAVYYFAAALYPYPGYEYWGQGTQVTVSS	high polyreactivity
QVQLVESGGGLVQAGGSLRLSCAASGRTFFRNAMGWYRQAPGKERELVAGISRSGGSTYYADSVKGRFTISRDNAKNTVYLQMNSLKPEDTAVYYCAASFRFYRTGYYYWGQGTQVTVSS	high polyreactivity
QVQLVESGGGLVQAGGSLRLSCAASGRTFFRNAMGWYRQAPGKERELVAGMSSSGGRTYADSVKGRYTISRDNAKNTVYLQMNSLKPEDTAVYYCAVQSGWVSGLRYYYWGQGTQVTVSS	high polyreactivity
QVQLVESGGGLVQAGGSLRLSCAASGRTFFRYVMGWYRQAPGKERELVAAISRSGGSTYYADSVKGRFTISRDNAKNTVYLQMNSLKPEDTAVYYCNTVARSTVVPTEFDYWGQGTQVTVSS	high polyreactivity
QVQLVESGGGLVQAGGSLRLSCAASGRTFFSFNAMVWYRQPPGKERELVAAIDGDGGITYYADSVKGRFTISRDNAKNTVYLQMNSLKPEDTAVYYCAAETLYSSAGEDDYWGQGTQVTVSS	low polyreactivity
QVQLVESGGGLVQAGGSLRLSCAASGRTFFSYTMGWYRPAPGKERELFAAIYDSDGRTYYADSVKVRFTISRDNAKNTVYLQMYSLKPEDTAVYYCAAVPDKYWSRVRRYLFEHNYWGQGTKVTVSS	low polyreactivity
QVQLVESGGGLVQAGGSLRLSCAASGRTFFTYAMGWYRQAPGKERELVAAITYRGGGTYYADSVKGRFTISRDNAKNTVYLQMNSLKPEDTAVYYCAAEYWVGVYLYDYWGQGTQVTVSS	high polyreactivity
QVQLVESGGGLVQAGGSLRLSCAASGRTFFVNAMGWYRPAPGKERELVAAITWSGGSTYYADSVKGRFTISRDNAKNTVYLQMNSLKAEDTAVYYCNADYQWYLGGYDYWGQGTQVTVSS	high polyreactivity
QVQLVESGGGLVQAGGSLRLSCAASGRTFFVNAMGWYRQAPGKERELVAAITWSGGSTYYADSVKGRFTISRDNAKNTVYLQMNSLKPEDTAVYYCAAEYYSYSYSYYYYGYEYWGQGTQVTVSS	high polyreactivity
QVQLVESGGGLVQAGGSLRLSCAASGRTFFVYAMGWYRPAPGKERELVASITLSGGSTYYADSVKGRFTISRDKAKNTVYLQINSLKREDTAGYYCAKGWSRDNDLEREDEYWGHGTQVTVSS	low polyreactivity
QVQLVESGGGLVQAGGSLRLSCAASGRTFFVYAMGWYRQAPGKERELVAAISRGGRTYYADSVKGRFTISRDNAKNTVYLQMNSLKPEDTAVYYCAAESWYQQGDYWGQGTQVTVSS	low polyreactivity
QVQLVESGGGLVQAGGSLRLSCAASGRTFFYYAMGWYRQAPGKERELVAAITTDGGTTSYADSVKGRFTISRDNAKNTVSLQMNSLKPEETAVYYCAADASYQYYPYDYWGQGTQVTVSS	low polyreactivity
QVQLVESGGGLVQAGGSLRLSCAASGRTFFYYAMGWYRQAPGKERELVAGITKRGGSTYYADSVKGRFTISRDNAKNSVYLQMNSLKPEDSAVYYCAKSFTQSSTDGYWGQGTQVNVSS	high polyreactivity
QVQLVESGGGLVQAGGSLRLSCAASGRTFFYYAMGWYRQSPGKERELVATITGIGGSTYADSVKGRFTISRDNAKNTVYLQMNSLKPEDTAVYYCNAERGVYWGRYPYKYDYWGQGTQVTVSS	low polyreactivity
QVQLVESGGGLVQAGGSLRLSCAASGRTFFYYTMGWYRQAPGKERELVAAITYSGTSTYYADSVKGRFTISRDNAKNTVYLQMNSLKPEDTAVYYCAADWYVTHQGYTSGIWYVEYDYWGQGTQVTVSS	low polyreactivity
QVQLVESGGGLVQAGGSLRLSCAASGRTFGANAMGWYRQAPGKERELVAASTQDGGSTYYADSVKGRFTISRDNAKNTVYLQMNSLKPEDTAVYYCAADLVVFVQFDVAVDYYYWGQGTQVTVSS	low polyreactivity
